Data reported in paper PMC3515335, “CDK2 Regulates HIV-1 Transcription by Phosphorylation of CDK9 on Serine 90” (Retrovirology, 2012).

Biological target: T1, Flag-tagged CDK9 S90A (human, UniProt P50750 1-372, S90A)
T1 construct: also called Flag-CDK9 S90A
Assay: co-IP; Flag-CDK9 (WT or S90A) precipitated with anti-Flag antibodies from lysates of 293T cells co-transfected with cyclin T1, 48 hrs post-transfection; whole cell lysis buffer (50 mM Tris-HCl pH 7.5, 0.5 M NaCl, 1% NP-40, 0.1% SDS); IP 2 hrs at 4°C in TNN buffer (50 mM Tris-HCl pH 7.5, 150 mM NaCl, 1% NP-40); immunoblot for Hexim1, CDK9 and cyclin T1
Conditions: partners not purified

T1 sequence (P50750 whole entry S90A): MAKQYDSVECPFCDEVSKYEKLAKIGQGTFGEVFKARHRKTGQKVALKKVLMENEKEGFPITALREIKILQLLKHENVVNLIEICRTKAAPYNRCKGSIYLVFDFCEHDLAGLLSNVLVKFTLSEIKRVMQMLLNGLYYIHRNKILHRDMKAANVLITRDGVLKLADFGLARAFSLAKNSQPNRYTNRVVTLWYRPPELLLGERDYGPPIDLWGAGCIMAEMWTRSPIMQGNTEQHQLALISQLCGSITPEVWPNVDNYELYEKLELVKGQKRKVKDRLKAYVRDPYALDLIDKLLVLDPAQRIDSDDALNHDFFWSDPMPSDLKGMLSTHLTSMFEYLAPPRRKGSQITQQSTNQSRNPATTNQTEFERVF

HEXIM1 co-precipitated, relative to WT CDK9: ~50 % less
B1: HEXIM1 (natural protein, human (endogenous in 293T), UniProt O94992 1-359, looked up)
chain: MAEPFLSEYQHQPQTSNCTGAAAVQEELNPERPPGAEERVPEEDSRWQSRAFPQLGGRPGPEGEGSLESQPPPLQTQACPESSCLREGEKGQNGDDSSAGGDFPPPAEVEPTPEAELLAQPCHDSEASKLGAPAAGGEEEWGQQQRQLGKKKHRRRPSKKKRHWKPYYKLTWEEKKKFDEKQSLRASRIRAEMFAKGQPVAPYNTTQFLMDDHDQEEPDLKTGLYSKRAAAKSDDTSDDDFMEEGGEEDGGSDGMGGDGSEFLQRDFSETYERYHTESLQNMSKQELIKEYLELEKCLSRMEDENNRLRLESKRLGGDDARVRELELELDRLRAENLQLLTENELHRQQERAPLSKFGD
notes: source: endogenous, 293T lysate
